Broadly, the stoichiometry N is a count of units in the complex or per binding partner.

Experimental findings from PMC9259645, “Discovery of archaeal fusexins homologous to eukaryotic HAP2/GCS1 gamete fusion proteins” (Nature Communications, 2022) are described below.

The data set concerns the molecule itself. The data set can be described thus: crystal structure; X-ray, 2.3 Å, space group C2, three-fold non-crystallographic symmetry; crystals grown at 20 °C from purified Fsx1E (in 20 mM Na-HEPES pH 7.8, 2.5 M NaCl) mixed with 23% PEG 4000, 0.1 M Tris-HCl pH 8.5, 0.2 M CaCl2.

B1: Fusexin1 ectodomain (Fsx1E), residues D25-S535 with T369C, crystallised construct (domain or fragment, UniProt C0HM55 25-535, looked up)
chain: DSITYNSGTSEFFDGDVFAIEVTADQSTDEIDIYLGASELSEKTDGEVNQDLSIEFTHQDSKLKYSTSTSDELRDIVTLTTYYEDGFDTEQDAIDAIKSDCYDLNQNGNGSGRYSRYYSVTSPVYDYEIYCFQKNEKLATPAYIDNPDEIFTAKAELQAGDKTIQSATLSNGDAGDGTVTDLGDSKISWNGNLDLGASEPENSRVIALYSNDFENGWRIGNKQSYEDYKTFIGGGDAYDLLIDWQDGTYTASEVEDELVNTDANQAVEEASSSTTDLVNAKVKDSSLDTGSFVYDTPELLSYPSFTVYVDAGENGYIEVTKPTGDPDIISTSSTEIKEGDEGTVCATVENVGDGEGEFSGRLSSCGEGFSIVDDQNTKNVGAGESVTYSFDVAFSSVSSESKEISGSCTFEVNGVESSDSTSVSVTGIQQSECNPGDQRREKNENDRWEIYTCQDNGLTYEYDVTCAEDEKAVAQGDNQFSCEKQDDDSGGGDNTGSDSGLFSNLFGGSGS
notes: Fusexin1 (Fsx1), archaeal fusexin from a metagenomic ORF of a hypersaline environment (IMG genome 3300000868, scaffold JGI12330J12834_1000008, ORF 8); extracellular region, residues D25-S535; Expressed from pLJ6 (derived from pHLsec3) behind the chicken Crypα signal peptide, in frame with a 3' 8xHis tag; T369C was introduced to help heavy atom derivatisation; Homotrimer in the crystal; also …
For B1, the “stoichiometry N” value came to 3.
